PMC3658276, “Plant stem cell maintenance involves direct transcriptional repression of differentiation program”

Target: T1, WUSCHEL (His-WUS) (UniProt Q9SB92 1-292)
T1 sequence: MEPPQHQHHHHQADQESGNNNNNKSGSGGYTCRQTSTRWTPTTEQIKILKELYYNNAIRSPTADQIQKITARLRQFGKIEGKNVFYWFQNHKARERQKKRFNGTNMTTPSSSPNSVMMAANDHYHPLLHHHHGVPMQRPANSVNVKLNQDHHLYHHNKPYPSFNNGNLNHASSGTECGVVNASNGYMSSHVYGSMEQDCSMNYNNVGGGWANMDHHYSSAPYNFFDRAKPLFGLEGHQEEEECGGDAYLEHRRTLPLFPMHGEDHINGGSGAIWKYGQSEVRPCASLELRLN
Assay: EMSA; supershift with anti-WUS antibody; EMSA conditions not given; as in Yadav et al 2011
Conditions: protein: recombinant; tags: His; chain copies: 2; (radiolabeled)

B1: KAN1 1050 oligo (dsDNA)
DNA 1: TCTTACACTAATACTATATTTACACATG
DNA 2: CATGTGTAAATATAGTATTAGTGTAAGA
binding result: binds

B2: KAN1 -1100 oligo (dsDNA)
DNA 1: TACTGATATTTAATGTATATTTATCTCT
DNA 2: AGAGATAAATATACATTAAATATCAGTA
binding result: binds
